Data reported in article PMC12416549 (2024).
Residue numbers refer to the chain shown, from its start. Names may count otherwise.

Biological target: T1, TNFR1 (Homo sapiens, UniProt P19438)
T1 chain: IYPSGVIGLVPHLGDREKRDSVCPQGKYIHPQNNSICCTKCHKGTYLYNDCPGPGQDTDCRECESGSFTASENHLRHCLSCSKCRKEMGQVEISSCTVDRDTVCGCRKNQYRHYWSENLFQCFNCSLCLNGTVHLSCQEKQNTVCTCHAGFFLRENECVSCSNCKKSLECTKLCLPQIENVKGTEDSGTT
Test: yeast display SC50

B1: L24D (designed binder)
chain: MTLQELLREEALRRAEAEAFRYADELLAEKFPEQKEYLLDLAEEIESQIRSLSGVDVEDVRKFLDKEWAWVKELLAEHPAELAEVEAARAARLAELRAEVEAKVAA
B1 was tested, and the “apparent Kd (screen)” value was 1.86 nM.

B2: A11F (designed binder)
chain: B1 chain with A11F, D24L
In the case of B2, the “apparent Kd (screen)” value is reported as 0.718 nM.

B3: E36D (designed binder)
chain: B1 chain with D24L, E36D
B3 was tested, and the “apparent Kd (screen)” value was 0.49 nM.

B4: D56W (designed binder)
chain: B1 chain with D24L, D56W
With B4 the “apparent Kd (screen)” value was 1.69 nM.

B5: K62Q (designed binder)
chain: B1 chain with D24L, K62Q
With B5 the “apparent Kd (screen)” value was 0.539 nM.

B6: L24Q (designed binder)
chain: B1 chain with D24Q
In the case of B6, the “apparent Kd (screen)” value is reported as 0.79 nM.

B7: L38W (designed binder)
chain: B1 chain with D24L, L38W
In the case of B7, the “apparent Kd (screen)” value is reported as 0.49 nM.

B8: S51L (designed binder)
chain: B1 chain with D24L, S51L
With B8 the “apparent Kd (screen)” value was 0.653 nM.

B9: E101D (designed binder)
chain: B1 chain with D24L, E101D
B9 was tested, and the “apparent Kd (screen)” value was 0.49 nM.

B10: R61G (designed binder)
chain: B1 chain with D24L, R61G
In the case of B10, the “apparent Kd (screen)” value is reported as 2.25 nM.

B11: R61Y (designed binder)
chain: B1 chain with D24L, R61Y
B11 was tested, and the “apparent Kd (screen)” value was 10.4 nM.

B12: A102T (designed binder)
chain: B1 chain with D24L, A102T
B12 was tested, and the “apparent Kd (screen)” value was 0.79 nM.

B13: W68D (designed binder)
chain: B1 chain with D24L, W68D
B13 was tested, and the “apparent Kd (screen)” value was 12.5 nM.

B14: L38N (designed binder)
chain: B1 chain with D24L, L38N
B14 was tested, and the “apparent Kd (screen)” value was 1.86 nM.

B15: R14S (designed binder)
chain: B1 chain with R14S, D24L
In the case of B15, the “apparent Kd (screen)” value is reported as 0.49 nM.

B16: K62E (designed binder)
chain: B1 chain with D24L, K62E
B16 was tested, and the “apparent Kd (screen)” value was 0.79 nM.

B17: V71Q (designed binder)
chain: B1 chain with D24L, V71Q
B17 was tested, and the “apparent Kd (screen)” value was 0.869 nM.

B18: Q48Y (designed binder)
chain: B1 chain with D24L, Q48Y
For B18, the “apparent Kd (screen)” value was 11.4 nM.

B19: S51M (designed binder)
chain: B1 chain with D24L, S51M
For B19, the “apparent Kd (screen)” value was 0.718 nM.

B20: E95K (designed binder)
chain: B1 chain with D24L, E95K
With B20 the “apparent Kd (screen)” value was 0.539 nM.

B21: E16N (designed binder)
chain: B1 chain with E16N, D24L
In the case of B21, the “apparent Kd (screen)” value is reported as 0.446 nM.

B22: R97A (designed binder)
chain: B1 chain with D24L, R97A
B22 was tested, and the “apparent Kd (screen)” value was 0.718 nM.

B23: V60N (designed binder)
chain: B1 chain with D24L, V60N
In the case of B23, the “apparent Kd (screen)” value is reported as 0.956 nM.

B24: A19M (designed binder)
chain: B1 chain with A19M, D24L
For B24, the “apparent Kd (screen)” value was 0.539 nM.

B25: K62Y (designed binder)
chain: B1 chain with D24L, K62Y
In the case of B25, the “apparent Kd (screen)” value is reported as 0.446 nM.

B26: R89K (designed binder)
chain: B1 chain with D24L, R89K
B26 was tested, and the “apparent Kd (screen)” value was 0.539 nM.

B27: L75R (designed binder)
chain: B1 chain with D24L, L75R
In the case of B27, the “apparent Kd (screen)” value is reported as 0.653 nM.

B28: F20C (designed binder)
chain: B1 chain with F20C, D24L
With B28 the “apparent Kd (screen)” value was 1.69 nM.

B29: A17R (designed binder)
chain: B1 chain with A17R, D24L
B29 was tested, and the “apparent Kd (screen)” value was 0.539 nM.

B30: A76K (designed binder)
chain: B1 chain with D24L, A76K
B30 was tested, and the “apparent Kd (screen)” value was 0.718 nM.

B31: L93T (designed binder)
chain: B1 chain with D24L, L93T
For B31, the “apparent Kd (screen)” value was 0.653 nM.

B32: E43K (designed binder)
chain: B1 chain with D24L, E43K
B32 was tested, and the “apparent Kd (screen)” value was 0.79 nM.

B33: A90L (designed binder)
chain: B1 chain with D24L, A90L
With B33 the “apparent Kd (screen)” value was 0.653 nM.

B34: V71R (designed binder)
chain: B1 chain with D24L, V71R
For B34, the “apparent Kd (screen)” value was 24.4 nM.

B35: L52R (designed binder)
chain: B1 chain with D24L, L52R
In the case of B35, the “apparent Kd (screen)” value is reported as 11.4 nM.

B36: E99K (designed binder)
chain: B1 chain with D24L, E99K
For B36, the “apparent Kd (screen)” value was 0.539 nM.

B37: D56C (designed binder)
chain: B1 chain with D24L, D56C
In the case of B37, the “apparent Kd (screen)” value is reported as 0.956 nM.

B38: E99C (designed binder)
chain: B1 chain with D24L, E99C
In the case of B38, the “apparent Kd (screen)” value is reported as 0.653 nM.

B39: P79Y (designed binder)
chain: B1 chain with D24L, P79Y
For B39, the “apparent Kd (screen)” value was 0.869 nM.

B40: E25N (designed binder)
chain: B1 chain with D24L, E25N
In the case of B40, the “apparent Kd (screen)” value is reported as 0.869 nM.

B41: E81Q (designed binder)
chain: B1 chain with D24L, E81Q
For B41, the “apparent Kd (screen)” value was 0.49 nM.

B42: E25V (designed binder)
chain: B1 chain with D24L, E25V
For B42, the “apparent Kd (screen)” value was 0.593 nM.

B43: E84R (designed binder)
chain: B1 chain with D24L, E84R
B43 was tested, and the “apparent Kd (screen)” value was 0.79 nM.

B44: D40P (designed binder)
chain: B1 chain with D24L, D40P
For B44, the “apparent Kd (screen)” value was 9.41 nM.

B45: E43I (designed binder)
chain: B1 chain with D24L, E43I
With B45 the “apparent Kd (screen)” value was 0.539 nM.

B46: Y37R (designed binder)
chain: B1 chain with D24L, Y37R
For B46, the “apparent Kd (screen)” value was 4.83 nM.

B47: I45H (designed binder)
chain: B1 chain with D24L, I45H
B47 was tested, and the “apparent Kd (screen)” value was 0.956 nM.

B48: E10I (designed binder)
chain: B1 chain with E10I, D24L
For B48, the “apparent Kd (screen)” value was 1.16 nM.

B49: T2N (designed binder)
chain: B1 chain with T2N, D24L
B49 was tested, and the “apparent Kd (screen)” value was 0.956 nM.

B50: K62V (designed binder)
chain: B1 chain with D24L, K62V
B50 was tested, and the “apparent Kd (screen)” value was 0.49 nM.

B51: L6Y (designed binder)
chain: B1 chain with L6Y, D24L
With B51 the “apparent Kd (screen)” value was 5.31 nM.

B52: L39D (designed binder)
chain: B1 chain with D24L, L39D
B52 was tested, and the “apparent Kd (screen)” value was 8.56 nM.

B53: A23M (designed binder)
chain: B1 chain with A23M, D24L
For B53, the “apparent Kd (screen)” value was 0.539 nM.

B54: L93H (designed binder)
chain: B1 chain with D24L, L93H
In the case of B54, the “apparent Kd (screen)” value is reported as 0.446 nM.

B55: L3P (designed binder)
chain: B1 chain with L3P, D24L
In the case of B55, the “apparent Kd (screen)” value is reported as 2.73 nM.

B56: R61V (designed binder)
chain: B1 chain with D24L, R61V
B56 was tested, and the “apparent Kd (screen)” value was 0.593 nM.

B57: S47I (designed binder)
chain: B1 chain with D24L, S47I
B57 was tested, and the “apparent Kd (screen)” value was 0.956 nM.
